Measured values published in US20040009892A1, “Method for the identification and use of substances that modulate POD function and/or structure” (The Salk Institute for Biological Studies, priority 1997, published 2004).

Tested on: Hep-2 cells
Test: Immunofluorescence localization of PML and DipA in Hep-2 cells
Assay type: cell-based
Settings: 5 μg of gamma interferon for 18 hrs before fixation
Method: Hep-2 cells were grown in round coverslips and maintained in DMEM supplemented with 10% fetal calf serum in a humidified atmosphere containing 5% CO2. Cells were treated with 5 μg of gamma interferon (Biosource) or mocked treated for 18 hrs before fixation. Cells were fixed by one of two methods. In a first method, the cells were fixed at room temperature for 5 min with freshly prepared 1% paraformaldehyde in PBS, washed with PBS, and permeabilized for 20 min on ice with 0.2% Triton X-100 in PBS (v/v) (Sigma Chemical Co.). Antigen localization (PML and DipA) was determined after incubation of permeabilized cells with rabbit antiserum (DipA Ab) and a specific PML mab diluted in PBS for 1 hr at RT. Cells were double labeled with the respective second antibodies labeled either with FITC or Texas red, using FITC for the structures with the lowest staining intensity.
Alternatively, cells were fixed at −20° C. for 5 min with fresh and cold acetone followed by fresh and cold absolute methanol.
The cells were incubated with the first Ab diluted in PBS-10% calf serum for two hrs at RT in a humidified chamber. Coverslips were washed for 10 min in PBS 0.05% Tween 20. […]
Fluorescence images were analyzed using either the Leica confocal scanning microscope or a Nikon Microphot-SA immunofluorescence microscope. […]

B1: interferon gamma: gamma interferon (Biosource) used to treat Hep-2 cells (protein, UniProt P01579 24-161, looked up)
Interferon gamma: QDPYVKEAENLKKYFNAGHSDVADNGTLFLGILKNWKEESDRKIMQSQIVSFYFKLFKNFKDDQSIQKSVETIKEDMNVKFFNSNKKKRDDFEKLTNYSVTDLNVQRKAIHELIQVMAELSPAAKTGKRKRSQMLFRG
  co-localization of PML and DipA in the POD structures: increased co-localization of PML and DipA in the POD structures
